From US20180049457A1, “ENZYMATIC SYNTHESIS OF SOLUBLE GLUCAN FIBER” (E I DU PONT DE NEMOURS AND COMPANY, priority 2014, published 2018)

Test: GTF activity of strains (PAHBAH assay)
Type: biochemical
Conditions: enzyme expressed in B. subtilis host
Procedure: GTF activity of the strains was analyzed by PAHBAH assay in three separate experiments. Due to minor variations between the expeirments, Table 2 lists the activity of the truncated enzymes in the B. subtilis host along with the experiment in which the activity was measured. Most of the T1, T2, and T6 truncations decreased the activity of the enzymes, whereas the T4 and T5 C-terminal truncations retained similar activity relative to the respective N terminal-only truncations (NT). […] To identify specific amino acid residues within the catalytic domain that may be involved in producing the soluble α-glucan fiber, we analyzed the crystal structures (PDB Identifiers: 3AIB, 3AIC, and 3HZ3) of the catalytic domains of three glucosyltransferases to identify residues within 8 Angstroms of the bound ligand. 57 residues met that criterion. A motif was generated based on the corresponding 57 amino acids in GTF0459 and each of the identified homologs. The motif was then used to generate a consensus sequence to capture the variability in the catalytic domains of GTF0459 and the identified homologs. The consensus sequence is provided as SEQ ID NO: 153.

| Molecule | GTF activity of strains: Acitivity (Experiment Number 2) | GTF activity of strains: Acitivity (Experiment Number 1) | GTF activity of strains: Acitivity (Experiment Number 3) |
| --- | --- | --- | --- |
| GTF4336T5: T5 C-terminal truncation of GTF4336, SEQ ID NO: 120, strain SG1319 (protein, T5 C-terminal truncation of GTF4336) INGKQYYVNSDGSVRKNFVFEQDGKSYYFDAETGALATKSQDEFSTEPIKATVDFSSGNQLYKNDDKSLDQLDTFITADAWYRPKSILKDGKTWTASTEADKRPLLMVWWPDKSTQVNYLNYMQNQGLGAGSFSTNSSQESLDQAAKAVQTKIEERIAREGNTNWLRTSIDQFIKTQPGWNSSTENSSYDHLQGGQLLFNNSKGDTGNRTSHANSDYRLLNRTPTNQTGTRKYFKDNSIGGLEFLLANDIDNSNPAVQAEQLNWLHFMMNIGSIMANDPTANFDGLRVDALDNVDADLLQIASDYFKAAYGVDKSEANAIKHLSYLEAWSANDPYYNKDTKGAQLPIDNALRNALTNLLMRDKNTRMQLGDMTAFINSSLNPRGANDKNGERMANYIFTRAHDTEAQTIIQRIIRDRINPNLFGYNFTRDEIKKAFEIYNEDIDKAHKTYASYNLPSVYALMLTNKDSVTRVYYGDLYREDGHYMAKKTPYFDAIDTLLRARIKYVAGGQDMEVKKVGNDGLLTSVRYGKGANNRTDLGTSETRTQGMGVIMTNNYDFRLGSNETVTMNMGRAHRNQLYRPLLLTTKDGIATYFNDSDVPKNLLKRTDWNGNLTFNANDVFGVENVQVSGYLGVWVPVGAKANQDARTQPSNRANSDGQVYKSSAALDSQVMYEAFSNFQAFADDQPELYMNRVLAKNTDLLKAWGVTSVGLPPQYVSSKDGTFLDSTIDNGYAFDDRYDMALSQNNKYGSLEDLLNVLRALHKDGIQAIADWVPDQIYNLPGKEVVNATRVNGYGYHQQGYQIVDQAYVANTRTDGTDYQGKYGGAFLDELKAKYPSIFNRVQISNGKQLPTNEKITKWSAKYFNGTNILGRGINYVLRDDKTNQYFNTSANSQLLPTPLRDTGAITSTQVFQRRGQDVYFLRDNQAVKNEFVQDGNGNWYYFGADGKMTKGAQTINKKDYYFFDNGIQLRNALRRANNGYTYYYGLDGAMVKNAFVDFDDKRKQ | 43.6 U/mL |  |  |
| GTF4336T4: T4 C-terminal truncation of GTF4336, SEQ ID NO: 130, strain SG1318 (protein, T4 C-terminal truncation of GTF4336) INGKQYYVNSDGSVRKNFVFEQDGKSYYFDAETGALATKSQDEFSTEPIKATVDFSSGNQLYKNDDKSLDQLDTFITADAWYRPKSILKDGKTWTASTEADKRPLLMVWWPDKSTQVNYLNYMQNQGLGAGSFSTNSSQESLDQAAKAVQTKIEERIAREGNTNWLRTSIDQFIKTQPGWNSSTENSSYDHLQGGQLLFNNSKGDTGNRTSHANSDYRLLNRTPTNQTGTRKYFKDNSIGGLEFLLANDIDNSNPAVQAEQLNWLHFMMNIGSIMANDPTANFDGLRVDALDNVDADLLQIASDYFKAAYGVDKSEANAIKHLSYLEAWSANDPYYNKDTKGAQLPIDNALRNALTNLLMRDKNTRMQLGDMTAFINSSLNPRGANDKNGERMANYIFTRAHDTEAQTIIQRIIRDRINPNLFGYNFTRDEIKKAFEIYNEDIDKAHKTYASYNLPSVYALMLTNKDSVTRVYYGDLYREDGHYMAKKTPYFDAIDTLLRARIKYVAGGQDMEVKKVGNDGLLTSVRYGKGANNRTDLGTSETRTQGMGVIMTNNYDFRLGSNETVTMNMGRAHRNQLYRPLLLTTKDGIATYFNDSDVPKNLLKRTDWNGNLTFNANDVFGVENVQVSGYLGVWVPVGAKANQDARTQPSNRANSDGQVYKSSAALDSQVMYEAFSNFQAFADDQPELYMNRVLAKNTDLLKAWGVTSVGLPPQYVSSKDGTFLDSTIDNGYAFDDRYDMALSQNNKYGSLEDLLNVLRALHKDGIQAIADWVPDQIYNLPGKEVVNATRVNGYGYHQQGYQIVDQAYVANTRTDGTDYQGKYGGAFLDELKAKYPSIFNRVQISNGKQLPTNEKITKWSAKYFNGTNILGRGINYVLRDDKTNQYFNTSANSQLLPTPLRDTGAITSTQVFQRRGQDVYFLRDNQAVKNEFVQDGNGNWYYFGADGKMTKGAQTINKKDYYFFDNGIQLRNALRRANNGYTYYYGLDGAMVKNAFVDFDDKRK | 46.4 U/mL |  |  |
| GTF0974NT: N terminal-only truncated GTF0974 from Streptococcus salivarius 57.I, SEQ ID NO: 110, strain SG1290 (protein, Streptococcus salivarius 57.I) INGKQYYVNSDGSVRKNFVFEQDGKSYYFDAETGALATKSQDEFSTEPIKATVDFSSGNQLYKNDDKSLDQLDTFITADAWYRPKSILKDGKTWTASTEADKRPLLMVWWPDKSTQVNYLNYMQNQGLGAGSFSTNSSQESLDQAAKAVQTKIEERIAREGNTNWLRTSIDQFIKTQPGWNSSTENSSYDHLQGGQLLFNNSKGDTGNRTSHANSDYRLLNRTPTNQTGTRKYFKDNSIGGLEFLLANDIDNSNPAVQAEQLNWLHFMMNIGSIMANDPTANFDGLRVDALDNVDADLLQIASDYFKAAYGVDKSEANAIKHLSYLEAWSANDPYYNKDTKGAQLPIDNALRNALTNLLMRDKNTRMQLGDMTAFINSSLNPRGANDKNGERMANYIFTRAHDTEAQTIIQRIIRDRINPNLFGYNFTRDEIKKAFEIYNEDIDKAHKTYASYNLPSVYALMLTNKDSVTRVYYGDLYREDGHYMAKKTPYFDAIDTLLRARIKYVAGGQDMEVKKVGNDGLLTSVRYGKGANNRTDLGTSETRTQGMGVIMTNNYDFRLGSNETVTMNMGRAHRNQLYRPLLLTTKDGIATYLNDSDVPKKLLKRTDWNGNLTFNANDVFGVENVQVSGYLGVWVPYGAKANQDARTQPSNRANSDGQVYKSSAALDSQVMYEAFSNFQAFADDQPELYMNRVLAKNTDLLKAWGITSVGLPPQYVSSKDGTFLDSTIDNGYAFDDRYDMALSQNNKYGSLEDLLNVLRALHKDGIQAIADWVPDQIYNLPGKEVVNATRVNGYGNHQVGYQIIDQAYVANTRTDGTDYQGKYGGAFLDELKAKYPSIFNRVQISNGKQLPTNEKITKWSAKYFNGTNILGRGINYVLRDDKTNQYFNTSANSQLLPTPLRDTGAITSTQVFQRRGQDVYFLRDNQAVKNEFVQDGNGNWYYFGGDGKMTKGAQNINNKDYYFFDNGIQLRNALRRASNGYTYYYGLDGAMVKNAFVDFDDKHKQVRAFTTQGTMVVGNLHWSGHHFYFDRETGIQAKDRVVRTDDGKLHYYVAETGDMGRNVFATDSSTGKRYYFDADGNTVTGSRVIDGKTYYFNQDGSVGTAYSNRADSIIFENGKARYITPAGEIGRSIFVYNPETKAWNYFDKEGNRVTGRQYIDGHLYYFKEDGSQAKGEIIEENGVKYYYEPESGILASGRYLQVGDDQWMYFKQDGSLAIGQVRADHGYLKYFDKNGIQVKGKTVVEDGKTYYYDAHSGALVTSSFAEIAPNQWSYFNTDGQALKGKWTINGKEYYFDENGIQYKGKAIKVGSRYKYYDENDGQPVTNRFAQIEPNVWAYFGADGYAVTGEQVINGQHLYFDQSGRQVKGAYVTVNGQRRYYDANTGEYVPGR | 53 U/mL | 43.7 U/mL | 36.4 U/mL |
| GTF0974T5: T5 C-terminal truncation of GTF0974 glucosyltransferase, SEQ ID NO: 118, strain SG1317 (protein, T5 C-terminal truncation of GTF0974) INGKQYYVNSDGSVRKNFVFEQDGKSYYFDAETGALATKSQDEFSTEPIKATVDFSSGNQLYKNDDKSLDQLDTFITADAWYRPKSILKDGKTWTASTEADKRPLLMVWWPDKSTQVNYLNYMQNQGLGAGSFSTNSSQESLDQAAKAVQTKIEERIAREGNTNWLRTSIDQFIKTQPGWNSSTENSSYDHLQGGQLLFNNSKGDTGNRTSHANSDYRLLNRTPTNQTGTRKYFKDNSIGGLEFLLANDIDNSNPAVQAEQLNWLHFMMNIGSIMANDPTANFDGLRVDALDNVDADLLQIASDYFKAAYGVDKSEANAIKHLSYLEAWSANDPYYNKDTKGAQLPIDNALRNALTNLLMRDKNTRMQLGDMTAFINSSLNPRGANDKNGERMANYIFTRAHDTEAQTIIQRIIRDRINPNLFGYNFTRDEIKKAFEIYNEDIDKAHKTYASYNLPSVYALMLTNKDSVTRVYYGDLYREDGHYMAKKTPYFDAIDTLLRARIKYVAGGQDMEVKKVGNDGLLTSVRYGKGANNRTDLGTSETRTQGMGVIMTNNYDFRLGSNETVTMNMGRAHRNQLYRPLLLTTKDGIATYLNDSDVPKKLLKRTDWNGNLTFNANDVFGVENVQVSGYLGVWVPYGAKANQDARTQPSNRANSDGQVYKSSAALDSQVMYEAFSNFQAFADDQPELYMNRVLAKNTDLLKAWGITSVGLPPQYVSSKDGTFLDSTIDNGYAFDDRYDMALSQNNKYGSLEDLLNVLRALHKDGIQAIADWVPDQIYNLPGKEVVNATRVNGYGNHQVGYQIIDQAYVANTRTDGTDYQGKYGGAFLDELKAKYPSIFNRVQISNGKQLPTNEKITKWSAKYFNGTNILGRGINYVLRDDKTNQYFNTSANSQLLPTPLRDTGAITSTQVFQRRGQDVYFLRDNQAVKNEFVQDGNGNWYYFGGDGKMTKGAQNINNKDYYFFDNGIQLRNALRRASNGYTYYYGLDGAMVKNAFVDFDDKHKQ | 43.5 U/mL |  | 37.7 U/mL |
